Data as given in PMC6379078 (Cell, 2018).
Ends that are not written are not given here. * marks the point of attachment. Biotin = O=C1N[C@H]2[C@H](CS[C@H]2CCCCC(=O)*)N1

Biological target: T1, wheat germ cell extract in vitro translated HA-GLI1 (human, UniProt P08151 1-1106)
T1 sequence (looked up): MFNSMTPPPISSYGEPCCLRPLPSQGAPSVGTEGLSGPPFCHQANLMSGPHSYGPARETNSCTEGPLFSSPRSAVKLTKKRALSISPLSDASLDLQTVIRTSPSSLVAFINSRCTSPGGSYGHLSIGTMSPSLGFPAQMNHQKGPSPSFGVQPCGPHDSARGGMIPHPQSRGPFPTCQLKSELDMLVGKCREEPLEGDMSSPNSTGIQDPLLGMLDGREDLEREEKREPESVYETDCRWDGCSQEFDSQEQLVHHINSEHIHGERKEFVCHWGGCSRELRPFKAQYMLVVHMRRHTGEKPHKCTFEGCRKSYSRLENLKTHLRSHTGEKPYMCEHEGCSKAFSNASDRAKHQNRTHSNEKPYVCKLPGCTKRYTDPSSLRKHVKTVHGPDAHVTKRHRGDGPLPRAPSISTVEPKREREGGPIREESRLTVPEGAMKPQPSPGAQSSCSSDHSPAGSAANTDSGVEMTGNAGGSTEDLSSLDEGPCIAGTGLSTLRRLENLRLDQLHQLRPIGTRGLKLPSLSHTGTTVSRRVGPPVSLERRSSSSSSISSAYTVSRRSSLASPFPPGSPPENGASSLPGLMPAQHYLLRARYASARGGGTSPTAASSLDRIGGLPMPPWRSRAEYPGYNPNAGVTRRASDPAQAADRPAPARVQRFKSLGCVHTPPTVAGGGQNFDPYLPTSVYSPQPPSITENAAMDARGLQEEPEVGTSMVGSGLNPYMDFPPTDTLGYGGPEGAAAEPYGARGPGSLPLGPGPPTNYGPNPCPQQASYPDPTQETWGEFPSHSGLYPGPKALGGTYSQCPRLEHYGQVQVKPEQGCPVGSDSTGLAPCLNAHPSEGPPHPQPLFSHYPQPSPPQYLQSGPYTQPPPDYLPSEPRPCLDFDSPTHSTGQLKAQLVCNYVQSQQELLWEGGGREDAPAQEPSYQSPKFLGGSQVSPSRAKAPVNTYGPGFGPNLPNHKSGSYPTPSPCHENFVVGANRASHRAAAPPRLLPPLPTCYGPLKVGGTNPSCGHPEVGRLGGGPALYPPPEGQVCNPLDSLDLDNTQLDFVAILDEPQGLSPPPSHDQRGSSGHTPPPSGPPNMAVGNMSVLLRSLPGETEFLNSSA
Assay: co-IP

Kd: 8 µM
Binder: Biotin-LEDPSVLTKDKLKSELVANNVTLPAGEQRKDVYVQLYLQHLTAR (peptide, UniProt P42166 5-48, looked up) [biotin-LEM-like domain peptide (residues 5–48)]
